Test results reported in PMC6194501, “A chemical reporter facilitates the detection and identification of lysine HMGylation on histones† †Electronic supplementary information (ESI) available: Experimental methods and figures. See DOI: 10.1039/c8sc02483a” (Chemical Science, 2018).
Starred links: 1 amine or outer side, 2 acyl side, 3 side chain; linkers in the order of their positions; H or OH if unused. No end group written: not given here. Glutaryl = O=C(CCCC(=O)[*:2])[*:1]

T1: human Sirt5 (human, UniProt Q9NXA8 37-310)
T1 construct: Sirt5 (sirtuin 5), human; the ESI (experimental methods) may tell them; also called sirtuin 5
T1 sequence (looked up): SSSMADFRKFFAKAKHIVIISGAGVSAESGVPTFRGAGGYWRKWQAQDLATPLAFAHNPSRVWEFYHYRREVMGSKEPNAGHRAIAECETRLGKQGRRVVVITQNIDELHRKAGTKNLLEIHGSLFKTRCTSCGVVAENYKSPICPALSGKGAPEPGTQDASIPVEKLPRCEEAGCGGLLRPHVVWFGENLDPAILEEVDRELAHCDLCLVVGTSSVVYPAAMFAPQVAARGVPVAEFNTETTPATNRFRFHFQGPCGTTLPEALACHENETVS


molecular target: T1, human Sirt5; experiment: ITC; isothermal titration calorimetry of Sirt5 with H3K9 acyl peptides; which partner was titrated and the conditions are not told in the text shown; settings: both partners purified

Row | Binder | Kd [µM]
1 | KQTARK(HMG)STGGKA [histone H3 peptide carrying an HMG mark at Lys9] | 61.7
2 | KQTARK(Glutaryl)STGGKA [H3K9glu] | 12.6
3 | ARTKQTARKSTGGKA (malonyl-lysine (Kmal) at Lys9) [H3K9mal] | 35
